Read-outs that look alike come from different tables or passages of the source.
T1: full-length vinculin (HV) (Homo sapiens, UniProt P18206)
T1 construct: with full-length vinculin (HV) in solid phase assays
T1 sequence (P18206 1-1066 isoform P18206-2): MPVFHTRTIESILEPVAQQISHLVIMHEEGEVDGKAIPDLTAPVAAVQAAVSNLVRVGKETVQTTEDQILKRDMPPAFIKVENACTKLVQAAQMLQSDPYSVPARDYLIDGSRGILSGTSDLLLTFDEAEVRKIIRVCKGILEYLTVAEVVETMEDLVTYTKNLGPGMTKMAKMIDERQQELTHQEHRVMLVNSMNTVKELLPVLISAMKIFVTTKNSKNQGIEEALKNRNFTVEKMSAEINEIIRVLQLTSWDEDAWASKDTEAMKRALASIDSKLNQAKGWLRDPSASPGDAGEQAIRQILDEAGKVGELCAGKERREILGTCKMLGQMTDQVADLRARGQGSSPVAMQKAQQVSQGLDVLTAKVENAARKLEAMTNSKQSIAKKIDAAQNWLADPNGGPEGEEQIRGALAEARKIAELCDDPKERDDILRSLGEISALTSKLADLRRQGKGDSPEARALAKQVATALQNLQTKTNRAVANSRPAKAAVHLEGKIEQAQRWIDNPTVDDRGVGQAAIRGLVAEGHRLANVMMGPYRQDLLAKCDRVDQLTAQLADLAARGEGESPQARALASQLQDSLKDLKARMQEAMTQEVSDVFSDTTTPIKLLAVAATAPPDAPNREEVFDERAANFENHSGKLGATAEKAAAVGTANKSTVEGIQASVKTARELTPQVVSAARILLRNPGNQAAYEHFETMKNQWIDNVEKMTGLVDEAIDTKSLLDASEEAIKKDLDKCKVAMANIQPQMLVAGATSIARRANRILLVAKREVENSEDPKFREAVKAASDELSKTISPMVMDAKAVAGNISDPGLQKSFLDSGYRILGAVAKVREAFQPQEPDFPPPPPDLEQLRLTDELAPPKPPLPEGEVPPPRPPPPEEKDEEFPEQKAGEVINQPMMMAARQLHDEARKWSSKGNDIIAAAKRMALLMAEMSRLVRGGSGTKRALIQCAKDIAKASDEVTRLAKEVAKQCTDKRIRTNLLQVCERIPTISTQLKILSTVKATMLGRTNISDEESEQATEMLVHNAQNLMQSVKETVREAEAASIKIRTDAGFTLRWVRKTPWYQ


Assays:
[1] = target: T1, full-length vinculin (HV); assay: ELISA solid phase binding assay; conditions: IpaA construct immobilized on the solid phase, HV as soluble ligand
Procedure: 96-well Maxisorp (Nunc) ELISA plates were coated with 30 nM full-length vinculin, vinculin constructs or IpaA proteins in binding buffer (25 mM Tris pH 7.4, 100 mM NaCl and 1 mM β-Mercaptoethanol). The wells were blocked with PBS-BSA 2%, washed and incubated with half series dilutions of IpaA or vinculin proteins in binding buffer+0.2% BSA at room temperature for one hour. After incubation the plates were washed and incubated with an anti-IpaA (dilution: 1/2000) polyclonal primary antibody (Tran Van Nhieu et al., 1997. EMBO J. 16(10):2717-29) or anti-vinculin (dilution: 1/2000) m11.5 monoclonal primary antibody (ref. V4505, Sigma-Aldrich) in binding buffer+0.2% BSA for one hour at room temperature. Plates were washed and incubated with an HRP-coupled secondary anti-rabbit or anti mouse Ig antibodies (dilution: 1/32000, Jackson ImmunoResearch) for one hour.

[2] = tested on: melanocytes; assay: Matrigel invasion assay; format: cell-based; conditions: 24-hour incubation, three independent experiments
Procedure: Cells were transfected by GFP-A524, GFP-A483 or Mock-transfected (without DNA, as a control).
Cells were further trypsinized, collected, and deposited in a matrigel insert. Following a 24-hour incubation, the matrigel was remove, the membrane was fixed and processed for fluorescence straining of cell nuclei with DAPI. Cells that transmigrated across the matrigel were scored (FIG. 24B).

[3] = target: T2, talin H1-H4 (Homo sapiens, UniProt Q9Y490); assay: Isothermal titration calorimetry; format: binding; conditions: 25° C.; for ΔG free enthalpy / ΔH enthalpy / −TΔS entropic contribution / Kd: ITC; for Kd: read-out: KD (affinity constant)
Procedure: Vinculin, IpaA proteins and peptides were extensively dialyzed in binding buffer (25 mM Tris pH 7.4, 100 mM NaCl and 1 mM β-Mercaptoethanol). The final concentration of all proteins/peptides was measured using a BCA test (Thermo Scientific). Talin-IpaA binding was measured by microcalorimetry using an ITC200 calorimeter (MicroCal) at 25° C. 200 μL of 20-100 μM of talin H1-H4 protein was added to the cell and binding in the presence of different concentrations of IpaA VBS1, VBS2 or VBS3 peptides was measured. In other experiments, 200 μL of a 16 μM equimolar mix of A483:HVD1 was incubated for one hour at room temperature prior to addition to the cell. Binding to talin H1-H4 (100 μM) was measured. Typically, 20-40 injections of 2 μL of ligand were made with intervals of 320 seconds between each addition, with a reference power of 12 μcal/sec. Data were analyzed using the MicroCal software provided by manufacturer.

[4] = target: T2, talin H1-H4; assay: SEC-MALS; format: binding; conditions: 20 μM equimolar
Procedure: The purified proteins IpaA 483-633 (A483), IpaA 524-633 (A524) and Talin H1-H4 (TlnH1-H4) were used at 20 μM equimolar concentrations and incubated at 4° C. for one hour in binding buffer (25 mM Tris-HCL pH 7.0, 100 mM NaCl and 1 mM β-Mercaptoethanol). The protein mixtures (200 μL) were analyzed by size-exclusion chromatography (SEC) on a Superdex 200 10/300 GL (GE Healthcare) using a Shimadzu Prominence HPLC. Multi-angle laser light scattering (MALS) was measured with a MiniDAWN TREOS (Wyatt Technology). Refractometry was monitored using an Optilab T-rEX (Wyatt Technology).

[5] = target: T2, talin H1-H4; assay: Native-PAGE gel shift; format: binding
Procedure: Talin H1-H4 and IpaA peptides/proteins were incubated in binding buffer for 1 hour at 4° C. After incubation, the protein/peptides were mixed in a 2× Native loading buffer (62.5 mM Tris pH 6.8, Glycerol 25%) and separated by Tris-Glycine Native-PAGE electrophoresis. Gels were stained using standard colloidal Coomassie stain.
Talin H1-H4 and IpaA peptides/proteins at different molar ratios were incubated in binding buffer (25 mM Tris pH 7.4, 100 mM NaCl and 1 mM β-Mercaptoethanol) for 1 hour at 4° C. After incubation, the protein/peptides were mixed in a 2× Native loading buffer (62.5 mM Tris pH 6.8, Glycerol 25%) and separated by Tris-Glycine Native-PAGE electrophoresis. The Native PAGE electrophoresis gels were stained using standard colloidal Coomassie stain.

T2 sequence (Q9Y490 482-636): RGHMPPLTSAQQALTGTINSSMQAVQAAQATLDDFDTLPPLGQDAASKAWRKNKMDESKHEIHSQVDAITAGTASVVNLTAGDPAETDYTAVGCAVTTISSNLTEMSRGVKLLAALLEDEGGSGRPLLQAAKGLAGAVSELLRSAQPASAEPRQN

Molecule | ligand concentration at which the saturation curve plateaus [1] [nM] | number of cells which migrated across a matrigel [2] [cells] | ΔG free enthalpy [3] [kcal/mol] | ΔH enthalpy [3] [kcal/mol] | −TΔS entropic contribution [3] [kcal/mol] | Kd ([3]; listed as A483 (VBS3)) [nM] | Kd [3] [nM] | complex formation with talin H1-H4 in solution [4] | concentration at which the complex with talin H1-H4 / migration shift could be detected [5] [µM] | N (stoichiometry) ([3]; ITC non-linear fit) | formation of a complex with talin H1-H4 [5]
A483: amino acids 483 to 633 of SEQ ID NO: 1 (IpaA), containing IpaA VBS1, VBS2 and VBS3 (protein, listed as Shigella flexneri, A483 / IpaA (483-633)) GDTYLTRETIFEASKKVTNSLSNLISLIGTKSGTQERELQEKSKDITKSTTEHRINNKLKVTDANIRNYVTETNADTIDKNHAIYEKAKEVSSALSKVLSKIDDTSAELLTDDISDLKNNNDITAENNNIYKAAKDVTTSLSKVLKNINKD | 25 | 120 | -10.025 | -6.229 | -3.796 | 24.9 | 24.9 | compact globular complex corresponding to one talin H1-H4 dimer bound to one A483 molecule | ≤ 5 | – | –
A524: IpaA 524-633, containing only IpaA VBS1 and VBS2 (protein, listed as Shigella flexneri, A524 / IpaA (524-633), IpaA 524-633, containing only IpaA VBS1 and VBS2) KSKDITKSTTEHRINNKLKVTDANIRNYVTETNADTIDKNHAIYEKAKEVSSALSKVLSKIDDTSAELLTDDISDLKNNNDITAENNNIYKAAKDVTTSLSKVLKNINKD | 25 | 96 | -7.448 | -3.979 | -3.469 | – | 2030 | absence of complex formation | – | 1.5 | no migration shift could be detected

Source: patent US11040083B2, “Polypeptides comprising vinculin binding sites for the treatment of proliferation and/or adhesion related diseases” (PARIS SCIENCES ET LETTRES—QUARTIER LATIN, priority 2015, dated 2021)
